Drawing on PMC5575927, this text covers Km for 1 protein.

Substrate in series [1]: CC(=O)N[C@H](C(=O)N[C@@H](CC(C)C)C(=O)NCC(=O)N[C@@H](CCCCN)C(=O)Nc1ccc2c(C)cc(=O)oc2c1)C(C)C
The experiment in a line: Fluorogenic AMC release. Format: biochemical. To be noted: pH 7.4; 25.0 °C.

Substrate in series [2]: CC(=O)N[C@H](C(=O)N[C@@H](CC(C)C)C(=O)N[C@H](C(=O)N[C@@H](CCCCN)C(=O)Nc1ccc2c(C)cc(=O)oc2c1)[C@@H](C)O)C(C)C
The experiment in a line: Fluorogenic AMC release. The class given is biochemical. As to conditions: pH 7.4; 25.0 °C.

B1: PmC11 (Parabacteroides merdae) (protein)
chain: ETPEPRTTRTILVYMMANNSLNSFASKNIESMIEGATSKNLNGGNLIVYYAPAGSPPELLRIKEENGVVKKIHLKDYEKQNSADPDVMRSVIGEVVSQYPADSYGLVLWSHGTAWLPSDYQNKLKAFGQDGNNWMEIDDLAKGLPDDLFDFILFDACYMASVECTYELRNKAEYILASPTETMADGWPYEEMMPQLFATDLQLEKVGETFYNHYLNNTYPYATVSLTKTSELDNLKSVTHDILADKTESDIYSLDPKKMQRLEYLYRSPGMLYDFNDYIKQLATAEQYDRFISCLDKAVVYKAHTPKSYYAAIGNALPIKSYCGLTIFVPQESLPKMLEWYKQRVGWYKAVYE
A word on the Km: it is the concentration of substrate that gives half-maximal velocity. Turning to B1, the Km was roughly 185.8 µM in “Fluorogenic AMC release [1]” and 20.4 µM in the series “Fluorogenic AMC release [2]”.
